In patent US20050255113A1, “Methods and compositions for inhibiting polypeptide accumulation associated with neurological disorders” (New York State Department of Health and Abgenix, Inc., priority 1999, published 2005):

How the values were obtained:
[1] = tested on: DRPLA polypeptide (GFP-DRPLA-35Q, GFP-DRPLA-Q81); assay: Intrabody retargeting specificity in COS-7 cells with DRPLA polypeptide (immunofluorescence); format: cell-based; settings: COS-7 co-transfection
Experimental: (§1) COS 7 cells were grown on cover glass in 6-well plates (10^5 cells/well) and co-transfected at a ratio of 3:1 (sFv to target) with plasmids containing either N-HD-C4 sFv or a negative control sFv (containing an HA tag and SV40 nuclear localization sequence (NLS)) and plasmids containing GFP-targeted fusion proteins using 5 μl SuperFect transfection reagent (QIAGEN). At 24 hours post-transfection, cells were prepared for immunofluorescence as follows: cells were fixed with 4% paraformaldehyde and permeabilized with 0.2% triton-X100. To prevent non-specific binding of secondary antibodies, cells were blocked with 10% normal goat serum in 3% BSA.
The model DRPLA target polypeptide was fused to a GFP domain to track the expression and intracellular localization of the target polypeptide in the transfected cells. In addition, two different intrabodies, one specific to huntingtin, and a second intrabody specific to an unrelated polypeptide, were independently cotransfected with the DRPLA target polypeptide.
FIGS. 13A-F show stably transfected COS-7 cells expressing α-Nt-HD-C4 sFv-HA-NLS which were further transfected with plasmids encoding either the model altered huntingtin polypeptide with 104 glutamine repeats (FIGS. 13B, D, F) or the model altered DRPLA polypeptide with 81 glutamine repeats (FIGS. 13A, C, E). […]

[2] = tested on: model huntingtin polypeptide (HD-25Q-GFP, pHD-104Q-GFP, HD-Q104-myc, GFP-HD-Q104); assay: Intrabody retargeting of model huntingtin polypeptide in co-transfected COS-7 cells (immunofluorescence); format: cell-based; settings: co-transfected mammalian cells
Experimental: as §1
The assay is designed such that both the target antigen, i.e., the model huntingtin polypeptide, and the intrabody can be visualized. In particular, the huntingtin polypeptide is visualized by detecting fluorescence emitted by the GFP domain of the huntingtin-GFP fusion polypeptide and the intrabodies tested are visualized using a rhodamine-conjugated antibody that can specifically bind to the intrabody.
The model HD target polypeptide was fused to c-myc (EQKLISEEDL (SEQ ID NO: 45)) epitope tag (HD-Q104-myc). The intrabodies sequences were fused to a HA tag and a SV40 nuclear localization signal (sFv-HA-NLS), so that bound antigens should be retargeted to the cell nuclei. At 48 hours post-transfection, cells were fixed and permeabilized. The HD-Q104-myc proteins were detectable using anti-myc epitope antibodies (i.e., MAb 9E10 IgG), followed by FITC-labeled goat anti-mouse IgG. The sFv-HA-NLS intrabodies were detected by polyclonal rabbit anti-HA IgG followed by rhodamine-conjugated goat anti-rabbit IgG antibodies.
FIGS. 13A-F show stably transfected COS-7 cells expressing α-Nt-HD-C4 sFv-HA-NLS which were further transfected with plasmids encoding either the model altered huntingtin polypeptide with 104 glutamine repeats (FIGS. 13B, D, F) or the model altered DRPLA polypeptide with 81 glutamine repeats (FIGS. 13A, C, E). Both model altered polypeptides were fused to GFP (GFP-HD-Q104 and GFP-DRPLA-Q81, respectively).

GST-DRPLA-35Q = target: T1, GST-DRPLA-35Q (Homo sapiens, UniProt P54259, DUP487-502); assay: Affinity purification of sFv with GST-fusion antigens (glutathione-Sepharose, SDS-PAGE, immunoblot); format: binding; settings: 3 μg sFv with 4 μg antigen, 1 hr room temperature
T1 construct: made in house; host or cells: E. coli BL21
Experimental: (§2) About 3 ug of N-HD-C4 sFv was mixed with 4 ug of either GST-DRPLA-Q35 or GST-HD-Q25 or GST-HD-Q42 in PBS (200 μl final volume) and rocked for 1 h at RT. Twenty microliters of glutathione Sepharose 4B beads (50% slurry, pre-washed with PBS) was added and incubated for another 30 min at RT to capture the sFv/GST fusion protein complexes. The beads were harvested by centrifugation at 12,000×g for 10 sec and washed thrice with 1 ml PBS. The complexes were eluted with 10 μl of 50 mM Tris pH 8.0 containing 10 mM reduced glutathione for 10 min at RT. Tubes were then centrifuged at 12,000×g for 1 min and the supernatants containing the soluble complexes were transferred to new tubes, mixed with an equal volume of 2× SDS-sample buffer and heated at 95° C. before being loaded on SDS-PAGE.
(§3) About 3 μg of each clone were incubated in solution for 1 hour at room temperature with 4 ug of either GST-DRPLA-Q35, GST-HD-Q25 or GST-HD-Q42. Then, a 10 μl bed volume of glutathione-Sepharose 4B (Pharmacia) was added to each tube to precipitate the GST-fusion protein/sFv complexes. After 30 min incubation, tubes were centrifuged and the pellets washed 3 times with 1 ml PBS. The complexes were eluted from glutathione-Sepharose beads by addition of 10 mM reduced glutathione to the pellets.
(§4) After centrifugation, supernatants containing the eluted complexes were transferred to new tubes and mixed with an equal volume of 2× SDS-loading buffer. The samples were boiled and the proteins separated on a 12% SDS-PAGE. Protein bands were visualized by Coomassie blue staining, and/or transferred to nitrocellulose membranes in order to detect the sFv molecules by immunoblot.
(§5) The binding specificities of the selected sFv clones were tested by affinity binding to a full range of antigens, as follows: (a) using sample numbers that correspond to the experimental results in FIGS. 9 and 10, about 3 μg of α-Nt-HD-C4 sFv clone 1 (lanes 2-4) or α-Nt-HD-C4 sFv clone 2 (lanes 5-7) were mixed with 4 μg of the following antigens and incubated in solution for 1 hr at room temperature (lanes 2 and 5) GST-DRPLA-35Q, (lanes 3 and 6) GST-HD-25Q, (4 and 7) GST-HD-42Q; (b) a 10 μl bed volume of glutathione-Sepharose 4B (Pharmacia) was added to each tube to bind all GST-containing protein complexes; the beads were washed with 10 mM glutathione solution, which eluted the GST-antigen or the sFv-antigen complex, and these eluates were analyzed by SDS-PAGE. Protein bands were visualized by Coomassie blue staining (FIG. 9) and were also transferred to nitrocellulose membranes in order to detect the sFv molecules by immunoblot blot (FIG. 10).

GST-HD-25Q, GST-HD-42Q = assay: as above; format: binding; settings: 3 μg sFv with 4 μg antigen, 1 hr room temperature; Coomassie and immunoblot
Experimental: as §2, §3, §4, §5

Sequence of model huntingtin polypeptide (HD-25Q-GFP, pHD-104Q-GFP, HD-Q104-myc, GFP-HD-Q104) (as listed by the source): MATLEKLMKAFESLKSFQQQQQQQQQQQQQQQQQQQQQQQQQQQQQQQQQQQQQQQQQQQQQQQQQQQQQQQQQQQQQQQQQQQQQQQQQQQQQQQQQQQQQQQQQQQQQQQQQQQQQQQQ
T1 sequence (P54259 with tags, fused parts or gaps DUP487-502): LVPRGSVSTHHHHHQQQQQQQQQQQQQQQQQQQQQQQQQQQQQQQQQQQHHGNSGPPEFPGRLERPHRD
Sequence of DRPLA polypeptide (GFP-DRPLA-35Q, GFP-DRPLA-Q81) (P54259 with tags, fused parts or gaps DUP487-502): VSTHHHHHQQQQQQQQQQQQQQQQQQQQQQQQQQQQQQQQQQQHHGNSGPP
Sequence of GST-HD-25Q, GST-HD-42Q (as listed by the source): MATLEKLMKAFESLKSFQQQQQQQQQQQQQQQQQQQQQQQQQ

B1: C4 sFv: human single-chain Fv intrabody from phage display, specific for the 17 N-terminal residues of huntingtin; SEQ ID NO: 6 (protein)
scFv: QVQLQESGGGLVQPGGSLRLSCAASGFTFSSYSMSWVRQAPGKGLEWVAVISYDGSNKYYADSVKGRFTISRDNSKNTLYLQMNSLRAEDTAVYYCARDRYFDLWGRGTLVTVSSGGGGSGGGGSGGGGSQSALTQPASVSGSPGQSITISCTGTSSDIGAYNYVSWYQQYPGKAPKLLIYDVSNRPSGISNRFSGSKSGDTASLTISGLQAEDEADYYCSSFANSGPLFGGGTKVTVL
- cellular distribution of GFP-DRPLA-35Q [1]: no change in the cellular distribution of DRPLA polypeptide
- retargeting of altered huntingtin polypeptide with 104 glutamines (pHD-104Q-GFP) [2]: can specifically retarget the cellular distribution of the model altered huntingtin polypeptide
- sFv co-purified with GST-DRPLA-Q35 (GST-DRPLA-35Q): not detected
- sFv co-purified with antigens containing the Nt-HD sequence (GST-HD-25Q, GST-HD-42Q): present at about the same intensity as the other proteins
